Measurements taken from publication PMC3527510, “Bin2 Is a Membrane Sculpting N-BAR Protein That Influences Leucocyte Podosomes, Motility and Phagocytosis” (PLoS ONE, 2012).
One block for each binder: values may come before it.

B3: GST-hBin2-CT (C-terminal region of human Bin2, amino acids 237-565) (domain or fragment, UniProt Q9UBW5 237-565, looked up)
chain: KLEKQHSNKVFVVKGLSSSSRRSLVISPPVRTATVSSPLTSPTSPSTLSLKSESESVSATEDLAPDAAQGEDNSEIKELLEEEEIEKEGSEASSSEEDEPLPACNGPAQAQPSPTTERAKSQEEVLPSSTTPSPGGALSPSGQPSSSATEVVLRTRTASEGSEQPKKRASIQRTSAPPSRPPPPRATASPRPSSGNIPSSPTASGGGSPTSPRASLGTGTASPRTSLEVSPNPEPPEKPVRTPEAKENENIHNQNPEELCTSPTLMTSQVASEPGEAKKMEDKEKDNKLISANSSEGQDQLQVSMVPENNNLTAPEPQEEVSTSENPQL
notes: Cloned into Nde1/Not1 sites of pGEX-4T-2; also called GST-Bin2-CT; BCT; source: E. coli DH5α, purified (glutathione sepharose, eluted with glutathione, dialysed)

Experiments:
[1] = biological target: the molecule itself; assay: crystal structure; hanging-drop crystals in 10% MPD, 7% PEG4000, 0.1 M sodium citrate pH 5.3, 20°C; MIRAS phasing; two molecules in the asymmetric unit
[2] = biological target: the molecule itself; assay: AUC; equilibrium sedimentation, 20°C, 20,000, 30,000 and 40,000 rpm; 20 mM Tris, 200 mM NaCl, 0.1 mM DTT; dimer to monomers
[3] = biological target: T1, Full-length rat Endophilin A1 (rat, UniProt O35179 1-352); assay: pull-down; 10 µg GST fusion or GST on glutathione beads with rising amounts of purified prey, 60 min; 20 mM HEPES pH 7.5, 150 mM NaCl, 1 mM DTT, 0.1% Triton X-100; SDS-PAGE, Coomassie; details: both partners purified
T1 construct: Endophilin A1, rat, full length; Cloned into pGEX-6P-2; also called rEndoA1; EndoA1

[4] = biological target: T2, GST-hBin2-CT (C-terminal region of human Bin2, amino acids 237-565) (Homo sapiens (Human), UniProt Q9UBW5); assay: GST pull-down, Coomassie
T2 chain: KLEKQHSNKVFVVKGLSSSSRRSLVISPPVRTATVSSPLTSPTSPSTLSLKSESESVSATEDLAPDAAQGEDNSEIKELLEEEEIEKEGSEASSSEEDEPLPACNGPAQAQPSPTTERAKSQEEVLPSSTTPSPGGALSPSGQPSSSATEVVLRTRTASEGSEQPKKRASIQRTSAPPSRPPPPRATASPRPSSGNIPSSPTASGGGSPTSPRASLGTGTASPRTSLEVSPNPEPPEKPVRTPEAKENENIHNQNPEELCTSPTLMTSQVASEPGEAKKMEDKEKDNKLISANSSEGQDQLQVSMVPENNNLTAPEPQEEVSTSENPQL

[5] = biological target: B3; assay: pull-down; 10 µg GST fusion or GST on glutathione beads with rising amounts of purified prey, 60 min; 20 mM HEPES pH 7.5, 150 mM NaCl, 1 mM DTT, 0.1% Triton X-100; SDS-PAGE, Coomassie; details: both partners purified
[6] = biological target: the molecule itself; assay: SEC; gel filtration profiles of WT rBin2 N-BAR against the V81R,S214E mutant, with molecular weight standards

T1 sequence (O35179 whole entry, the tested form may be a part): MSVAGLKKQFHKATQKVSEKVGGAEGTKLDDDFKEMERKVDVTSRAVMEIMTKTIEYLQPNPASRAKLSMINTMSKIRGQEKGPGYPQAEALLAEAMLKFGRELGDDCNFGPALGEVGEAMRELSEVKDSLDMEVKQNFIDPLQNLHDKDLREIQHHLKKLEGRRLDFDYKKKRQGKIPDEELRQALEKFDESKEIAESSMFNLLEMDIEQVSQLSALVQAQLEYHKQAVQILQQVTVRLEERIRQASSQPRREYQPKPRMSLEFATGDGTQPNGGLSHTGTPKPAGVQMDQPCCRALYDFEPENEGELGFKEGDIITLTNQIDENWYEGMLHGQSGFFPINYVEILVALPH

B1: Human Bin2 BAR domain (residues 20-238; Bin2 N-BAR Δ19) (domain or fragment, UniProt Q9UBW5 20-238, looked up)
chain: KFSRAQEKVLQKLGKAVETKDERFEQSASNFYQQQAEGHKLYKDLKNFLSAVKVMHESSKRVSETLQEIYSSEWDGHEELKAIVWNNDLLWEDYEEKLADQAVRTMEIYVAQFSEIKERIAKRGRKLVDYDSARHHLEAVQNAKKKDEAKTAKAEEEFNKAQTVFEDLNQELLEELPILYNSRIGCYVTIFQNISNLRDVFYREMSKLNHNLYEVMSKL
notes: Bridging integrator-2 (Bin2, BRAP1), human, residues 20-238; human Bin2 has 565 amino acids; the final model holds residues 37-238; Cloned into BamH1/Xho1 sites of pGEX-4T-2; also called hBin2 BAR; Bin2-NTΔ19; source: E. coli DH5α, purified (glutathione sepharose, thrombin cleavage, HiTrap Q, gel filtration)
binding result [1]: binds

B2: Human Bin2 N-BAR domain (1-238) (domain or fragment, UniProt Q9UBW5 1-238, looked up)
chain: MAEGKAGGAAGLFAKQVQKKFSRAQEKVLQKLGKAVETKDERFEQSASNFYQQQAEGHKLYKDLKNFLSAVKVMHESSKRVSETLQEIYSSEWDGHEELKAIVWNNDLLWEDYEEKLADQAVRTMEIYVAQFSEIKERIAKRGRKLVDYDSARHHLEAVQNAKKKDEAKTAKAEEEFNKAQTVFEDLNQELLEELPILYNSRIGCYVTIFQNISNLRDVFYREMSKLNHNLYEVMSKL
notes: Bridging integrator-2 (Bin2, BRAP1), human, residues 1-238; also called hBin2 N-BAR; source: E. coli DH5α, purified (glutathione sepharose, thrombin cleavage, HiTrap Q, gel filtration)
Kd [2]: 7 µM

Binder: B3
binding result [3]: binds

binding result [4]: binds
binding result [5]: binds
B4: Human α-PIX SH3 domain (amino acids 160-222) (domain or fragment, UniProt Q15052 160-222, looked up)
chain: SHQLIVKARFNFKQTNEDELSVCKGDIIYVTRVEEGGWWEGTLNGRTGWFPSNYVREIKSSER
notes: α-PIX, human, SH3 domain, residues 160-222; Cloned into pGEX-4T-2

B5: Rat Bin2 N-BAR domain (1-238), wild type (domain or fragment, UniProt Q68FR2 1-238, looked up)
chain: MAEGKAGGAAGLFAKQMQKKFSRAQEKVLQKLGKTVETKDERFEQSASNFYQQQAEGHRLYKDLKNFLSAVKVMRESSKRVSETLQEIYNSDWDGHEDLKAIVGNNDLLWEDYEEKLADQALRTMENYVSQFSEVKERIAKRGRKLVDYDSARHHLEAVQNAKKKDEAKMAKAEEDFSKAQVVFEDLNQELLEELPVLYNSRIGCYVTVFQNISNLRDVFYREMSKLNHSLYEVMSKL
notes: Bridging integrator-2 (Bin2), rat, residues 1-238; also called WT rBin2 N-BAR
binding result [6]: binds

B6: Rat Bin2 N-BAR V81R,S214E mutant (domain or fragment, UniProt Q68FR2 1-238, looked up)
chain: MAEGKAGGAAGLFAKQMQKKFSRAQEKVLQKLGKTVETKDERFEQSASNFYQQQAEGHRLYKDLKNFLSAVKVMRESSKRRSETLQEIYNSDWDGHEDLKAIVGNNDLLWEDYEEKLADQALRTMENYVSQFSEVKERIAKRGRKLVDYDSARHHLEAVQNAKKKDEAKMAKAEEDFSKAQVVFEDLNQELLEELPVLYNSRIGCYVTVFQNIENLRDVFYREMSKLNHSLYEVMSKL
notes: also called rBin2 N-BAR V81R,S214E; dimerization mutant
binding result [6]: binds
